Data on 2 proteins can be found in article PMC8694623 (Science Advances, 2021).

The series “cryo-EM structure” concerns the molecule itself. Put plainly: cryo-EM structure.
The series “negative-stain EM” deals with the molecule itself. Put plainly: negative-stain EM.

B1: S. cerevisiae Atm1-Strep (ABC transporter of mitochondria 1), wild type (natural protein, UniProt P40416 92-690, looked up)
chain: LKDLFRYIWPKGNNKVRIRVLIALGLLISAKILNVQVPFFFKQTIDSMNIAWDDPTVALPAAIGLTILCYGVARFGSVLFGELRNAVFAKVAQNAIRTVSLQTFQHLMKLDLGWHLSRQTGGLTRAMDRGTKGISQVLTAMVFHIIPISFEISVVCGILTYQFGASFAAITFSTMLLYSIFTIKTTAWRTHFRRDANKADNKAASVALDSLINFEAVKYFNNEKYLADKYNGSLMNYRDSQIKVSQSLAFLNSGQNLIFTTALTAMMYMGCTGVIGGNLTVGDLVLINQLVFQLSVPLNFLGSVYRDLKQSLIDMETLFKLRKNEVKIKNAERPLMLPENVPYDITFENVTFGYHPDRKILKNASFTIPAGWKTAIVGSSGSGKSTILKLVFRFYDPESGRILINGRDIKEYDIDALRKVIGVVPQDTPLFNDTIWENVKFGRIDATDEEVITVVEKAQLAPLIKKLPQGFDTIVGERGLMISGGEKQRLAIARVLLKNARIMFFDEATSALDTHTEQALLRTIRDNFTSGSRTSVYIAHRLRTIADADKIIVLDNGRVREEGKHLELLAMPGSLYRELWTIQEDLDHLENELKDQQEL
Regarding B1, in “cryo-EM structure”, the binding result is listed as “binds”.

B2: Atm1-L657 truncation mutant (residues 92 to 656), C-terminally Strep-tagged (domain or fragment, S. cerevisiae, UniProt P40416 92-656, looked up)
chain: LKDLFRYIWPKGNNKVRIRVLIALGLLISAKILNVQVPFFFKQTIDSMNIAWDDPTVALPAAIGLTILCYGVARFGSVLFGELRNAVFAKVAQNAIRTVSLQTFQHLMKLDLGWHLSRQTGGLTRAMDRGTKGISQVLTAMVFHIIPISFEISVVCGILTYQFGASFAAITFSTMLLYSIFTIKTTAWRTHFRRDANKADNKAASVALDSLINFEAVKYFNNEKYLADKYNGSLMNYRDSQIKVSQSLAFLNSGQNLIFTTALTAMMYMGCTGVIGGNLTVGDLVLINQLVFQLSVPLNFLGSVYRDLKQSLIDMETLFKLRKNEVKIKNAERPLMLPENVPYDITFENVTFGYHPDRKILKNASFTIPAGWKTAIVGSSGSGKSTILKLVFRFYDPESGRILINGRDIKEYDIDALRKVIGVVPQDTPLFNDTIWENVKFGRIDATDEEVITVVEKAQLAPLIKKLPQGFDTIVGERGLMISGGEKQRLAIARVLLKNARIMFFDEATSALDTHTEQALLRTIRDNFTSGSRTSVYIAHRLRTIADADKIIVLDNGRVREEGKH
Regarding B2, the binding result in the series “negative-stain EM” is given as “binds”.
